Measured values reported in the supplement of paper PMC10567573.

B1: KCNA3 (parent)
chain: GERVVINISGLRFETQLKTLCQFP
B2: TRAF3IP2 (parent)
chain: PGQPLPGASVRGLHPVQKVILNYP

Variants of: B1
Assay: protein stability index of a GFP-peptide fusion (GPS, HEK-293T) (PSI 1-6); higher = more stable
Conditions: c terminus: a fixed tail appended
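Further: lentivirally expressed fusions sorted by FACS into six bins by GFP to DsRed ratio, PSI derived from sequencing read proportions per bin multiplied by bin number.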

Point of comparison: K18Q, protein stability index 1.87. Against it:
- C21Q — higher, 2.57
- C21V — lower, 1.81
- T19Q — lower, 1.28
- T19F — lower, 1.76
- T19E — higher, 2
- T19K — lower, 1.45
- T19R — lower, 1.32
- T19H — lower, 1.78
- T19N — lower, 1.34
- T19A — the same, 1.87
- T19M — higher, 3.15
- T19C — higher, 3.24
- T19P — lower, 1.49
- K18A — higher, 3.07
- K18C — higher, 1.92
- K18M — higher, 3.17
- K18R — higher, 2.29
- K18S — lower, 1.78
- K18D — higher, 3.02
- K18E — higher, 3.06
- K18I — higher, 3.07
- E14G — higher, 2.74
- E14T — lower, 1.83
- E14H — higher, 3.28
- E14Q — lower, 1.04
- E14K — higher, 2.42
- E14D — higher, 2.37
- E14V — higher, 3
- E14P — lower, 1
- E14R — higher, 1.89
- E14M — higher, 3.03
- E14N — higher, 2.08

Variants of: B2
Assay: as above
Conditions: c terminus: a fixed tail appended

Point of comparison: Q3D, protein stability index 3.15. Against it:
- G7S — lower, 2.76
- G7L — higher, 3.44
- G7W — lower, 2.09
- G7D — higher, 3.22
- G7M — lower, 3
- G7Q — lower, 3.12
- G7A — lower, 3.02
- G7N — lower, 2.68
- G7E — higher, 3.55
- G7H — higher, 3.2
- G7I — lower, 3.05
- G7P — lower, 3.04
- G7V — higher, 3.26
- G7Y — lower, 2.26
- G7K — lower, 2.76
- G7T — higher, 3.31
- G7R — lower, 2.69
- G7C — lower, 2.59
- G7F — the same, 3.15
- P1E — higher, 3.31
- P1S — lower, 2.62
- P1Y — lower, 2.49
- P1N — higher, 3.63
- P1M — lower, 3
- P1K — lower, 3.02
- P1Q — higher, 3.47
- P1T — lower, 2.65
- P1H — higher, 3.31
- P1I — lower, 2.99
- P1G — lower, 2.86
- P1F — lower, 3
- P1L — lower, 2.78
- P1W — lower, 2.45
- P1D — lower, 2.97
- P1C — lower, 1.73
- P1V — higher, 3.25
- G2H — lower, 2.06
- G2R — higher, 3.39
- G2L — lower, 2.23
- G2I — lower, 2.62
- G2K — lower, 2.58
- G2P — higher, 3.35
- G2M — lower, 2.44
- G2D — higher, 4.21
- G2F — lower, 2.92
- G2S — lower, 2.81
- G2E — higher, 3.79
- G2T — higher, 3.21
- G2Q — lower, 2.85
- G2A — lower, 2.89
- G2N — lower, 2.65
- G2V — higher, 3.21
- G2W — lower, 2.15
- G2C — lower, 2.22
- P6Y — lower, 2.72
- P6C — lower, 2.08
- P6M — lower, 3.09
- P6H — higher, 3.44
- P6G — lower, 2.5
- P6A — higher, 3.49
- P6V — higher, 3.46
- P6F — higher, 3.17
- P6N — higher, 3.21
- P6K — lower, 2.54
- P6W — lower, 2.53
- P6R — higher, 3.63
- P6L — lower, 2.42
- P6S — lower, 3.14
- P6E — higher, 3.69
- P6I — lower, 2.79
- P6D — higher, 3.37
- P6Q — higher, 3.46
- P6T — higher, 3.21
- P4H — lower, 3.08
- P4F — lower, 2.92
- P4Y — lower, 2.77
- P4T — higher, 4.15
- P4E — higher, 3.52
- P4W — lower, 2.84
- P4D — lower, 3.03
- P4M — lower, 3
- P4K — lower, 2.69
- P4V — lower, 2.69
- P4L — lower, 2.66
- P4G — lower, 2.22
- P4Q — higher, 3.29
- P4I — lower, 2.41
- P4S — lower, 2.6
- P4R — higher, 3.21
- P4A — higher, 3.17
- P4N — lower, 2.06
- P4C — lower, 2.73
- Q3P — higher, 3.57
- Q3S — higher, 3.97
- Q3V — higher, 3.42
- Q3E — higher, 3.65
- Q3K — lower, 3.09
- Q3A — higher, 3.28
- Q3G — higher, 4.09
- Q3W — lower, 2.31
- Q3Y — lower, 2.41
- Q3C — lower, 2.71
- Q3L — lower, 2.96
- Q3H — lower, 2.72
- Q3F — lower, 2.42
- Q3N — higher, 3.28
- Q3M — higher, 3.34
- Q3I — lower, 2.88
- Q3R — lower, 3.11
- Q3T — lower, 3.12
- L5C — lower, 2.94
- L5G — higher, 3.56
- L5Y — higher, 3.48
- L5Q — higher, 3.95
- L5M — higher, 3.44
- L5E — the same, 3.15
- L5K — higher, 3.25
- L5N — higher, 3.66
- L5W — lower, 2.94
- L5P — higher, 3.64
- L5F — lower, 2.29
- L5R — higher, 3.19
- L5D — higher, 3.84
- L5H — higher, 3.42
- L5I — higher, 3.34
- L5A — higher, 3.31
- L5S — higher, 3.43
- L5T — higher, 3.88
- A8E — higher, 3.36
- A8F — lower, 2.51
- A8D — higher, 3.19
- A8C — lower, 2.27
- A8G — higher, 3.24
